Measured values from article PMC5027577.

What was measured:
[1] = target: T1, TGF-β type I receptor (TRI) (human (endogenous in HeLa)), P36897; test: live-cell single-molecule TIRFM tracking (membrane on-times); EGFP-Smad3 or EGFP-M-Smad3 at low expression in living HeLa cells treated with 10 ng/ml TGF-β1 for 15 min at 37 °C; 10 Hz; cumulative histograms of on-times fitted with a single exponential; conditions: remark: other sources report otherwise
T1 chain: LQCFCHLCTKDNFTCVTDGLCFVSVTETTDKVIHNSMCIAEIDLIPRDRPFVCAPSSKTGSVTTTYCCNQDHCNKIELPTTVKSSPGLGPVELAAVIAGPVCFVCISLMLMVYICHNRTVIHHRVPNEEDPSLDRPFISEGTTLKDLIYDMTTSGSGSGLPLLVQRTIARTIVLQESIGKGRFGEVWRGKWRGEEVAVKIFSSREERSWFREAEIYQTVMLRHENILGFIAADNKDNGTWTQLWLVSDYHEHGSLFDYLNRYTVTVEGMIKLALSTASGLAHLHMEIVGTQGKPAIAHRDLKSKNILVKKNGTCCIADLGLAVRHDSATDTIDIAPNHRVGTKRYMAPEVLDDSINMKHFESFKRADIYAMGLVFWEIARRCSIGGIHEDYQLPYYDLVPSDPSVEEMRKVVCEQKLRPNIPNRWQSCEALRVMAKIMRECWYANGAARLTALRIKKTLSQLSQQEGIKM

[2] = target: T1, TGF-β type I receptor (TRI) (human …); test: live-cell single-molecule TIRFM tracking (membrane on-times); EGFP-Smad3 or EGFP-M-Smad3 at low expression in living HeLa cells, unstimulated; 10 Hz; cumulative histograms of on-times fitted with a single exponential; conditions: remark: other sources report otherwise

B1: EGFP-Smad3, P84022 1-425 (natural protein)
chain: MSSILPFTPPIVKRLLGWKKGEQNGQEEKWCEKAVKSLVKKLKKTGQLDELEKAITTQNVNTKCITIPRSLDGRLQVSHRKGLPHVIYCRLWRWPDLHSHHELRAMELCEFAFNMKKDEVCVNPYHYQRVETPVLPPVLVPRHTEIPAEFPPLDDYSHSIPENTNFPAGIEPQSNIPETPPPGYLSEDGETSDHQMNHSMDAGSPNLSPNPMSPAHNNLDLQPVTYCEPAFWCSISYYELNQRVGETFHASQPSMTVDGFTDPSNSERFCLGLLSNVNRNAAVELTRRHIGRGVRLYYIGGEVFAECLSDSAIFVQSPNCNQRYGWHPATVCKIPPGCNLKIFNNQEFAALLAQSVNQGFEAVYQLTRMCTIRMSFVKGWGAEYRRQTVTSTPCWIELHLNGPLQWLDKVLTQMGSPSIRCSSVS
B1 showed a koff [1] of 1.67 s⁻¹, a time constant of membrane on-times (τs) [1] of 0.6 s and a koff [2] of 1.96 s⁻¹. It also gave a time constant of membrane on-times (τu) [2] of 0.51 s.
